Reference: patent US7657380
Changes are numbered by the printed parent chain.

T1: human CD30 (commercial, conjugated to digoxigenin) (human, UniProt P28908 19-379, limits assumed, conjugated to digoxigenin (DIG))
T1 sequence (looked up): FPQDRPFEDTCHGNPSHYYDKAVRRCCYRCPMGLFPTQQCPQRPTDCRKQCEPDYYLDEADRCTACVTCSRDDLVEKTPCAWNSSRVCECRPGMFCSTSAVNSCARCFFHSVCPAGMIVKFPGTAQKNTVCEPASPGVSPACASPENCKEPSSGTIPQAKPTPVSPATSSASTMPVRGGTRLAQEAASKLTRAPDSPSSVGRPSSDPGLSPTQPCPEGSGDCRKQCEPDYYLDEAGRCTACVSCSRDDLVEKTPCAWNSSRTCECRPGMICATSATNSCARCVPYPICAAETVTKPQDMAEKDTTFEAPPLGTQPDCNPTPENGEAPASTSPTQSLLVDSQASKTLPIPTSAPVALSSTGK

B1: AC10 H3.1/L3 (antibody, IgG1, name in Kabat numbering, V domains shown)
VH: EIQLVQSGPEVKKPGASVKVSCKASGYTFTDYYITWVRQAPGQGLEWMGWIYPGSGNTKYNEKFQGRFVFSVDTSASTAYLQISSLKAEDTAVYFCANYGNYWFAYWGQGTLVTVSS
VL: DIVLTQSPDSLAVSLGERATINCKASQSVDFDGDSYMNWYQQKPGQPPKVLIYAASNLESGIPARFSGSGSGTDFTLTINSLEAEDAATYYCQQSNEDPWTFGGGTKVEIK
B2: AC10 H3.40/L3 (antibody, IgG1, name in Kabat numbering, V domains shown)
VH: B1 VH with E1Q, E62Q
VL: B1 VL
B3: AC10 H3.28/L3 (antibody, IgG1, name in Kabat numbering, V domains shown)
VH: B1 VH with E1Q, P53V
VL: B1 VL
B4: AC10 H3.8/L3 (antibody, IgG1, name in Kabat numbering, V domains shown)
VH: B1 VH with E1Q, D31G
VL: B1 VL
B5: AC10 H3.48/L3 (antibody, IgG1, name in Kabat numbering, V domains shown)
VH: B1 VH with E1Q, F95Y
VL: B1 VL
B6: AC10 H3.38/L3 (antibody, IgG1, name in Kabat numbering, V domains shown)
VH: B1 VH with E1Q, N61V
VL: B1 VL
B7: AC10 H3.19/L3 (antibody, IgG1, name in Kabat numbering, V domains shown)
VH: B1 VH with E1Q, T35S
VL: B1 VL
B8: AC10 H3.17/L3 (antibody, IgG1, name in Kabat numbering, V domains shown)
VH: B1 VH with E1Q, T35H
VL: B1 VL
B9: AC10 H3.34/L3 (antibody, IgG1, name in Kabat numbering, V domains shown)
VH: B1 VH with E1Q, N61A
VL: B1 VL
B10: AC10 H3.30/L3 (antibody, IgG1, name in Kabat numbering, V domains shown)
VH: B1 VH with E1Q, S55N
VL: B1 VL
B11: AC10 H3.43/L3 (antibody, IgG1, name in Kabat numbering, V domains shown)
VH: B1 VH with E1Q, V72M
VL: B1 VL
B12: AC10 H3.13/L3 (antibody, IgG1, name in Kabat numbering, V domains shown)
VH: B1 VH with E1Q, I34L
VL: B1 VL
B13: AC10 H3.20/L3 (antibody, IgG1, name in Kabat numbering, V domains shown)
VH: B1 VH with E1Q, G44A
VL: B1 VL
B14: AC10 H3.23/L3 (antibody, IgG1, name in Kabat numbering, V domains shown)
VH: B1 VH with E1Q, W50R
VL: B1 VL
B15: AC10 H3.7/L3 (antibody, IgG1, name in Kabat numbering, V domains shown)
VH: B1 VH with E1Q, A24V
VL: B1 VL
B16: AC10 H3.14/L3 (antibody, IgG1, name in Kabat numbering, V domains shown)
VH: B1 VH with E1Q, I34M
VL: B1 VL
B17: AC10 H3.27/L3 (antibody, IgG1, name in Kabat numbering, V domains shown)
VH: B1 VH with E1Q, P53A
VL: B1 VL
B18: AC10 H3.5/L3 (antibody, IgG1, name in Kabat numbering, V domains shown)
VH: B1 VH with E1Q, P9A
VL: B1 VL
B19: AC10 H3.32/L3 (antibody, IgG1, name in Kabat numbering, V domains shown)
VH: B1 VH with E1Q, K59I
VL: B1 VL
B20: AC10 H3.37/L3 (antibody, IgG1, name in Kabat numbering, V domains shown)
VH: B1 VH with E1Q, N61T
VL: B1 VL
B21: AC10 H3.46/L3 (antibody, IgG1, name in Kabat numbering, V domains shown)
VH: B1 VH with E1Q, V93M
VL: B1 VL
B22: AC10 H3.29/L3 (antibody, IgG1, name in Kabat numbering, V domains shown)
VH: B1 VH with E1Q, S55D
VL: B1 VL
B23: AC10 H3.22/L3 (antibody, IgG1, name in Kabat numbering, V domains shown)
VH: B1 VH with E1Q, W50I
VL: B1 VL
B24: AC10 H3.41/L3 (antibody, IgG1, name in Kabat numbering, V domains shown)
VH: B1 VH with E1Q, Q65T
VL: B1 VL
B25: AC10 H3.12/L3 (antibody, IgG1, name in Kabat numbering, V domains shown)
VH: B1 VH with E1Q, Y33W
VL: B1 VL
B26: AC10 H3.45/L3 (antibody, IgG1, name in Kabat numbering, V domains shown)
VH: B1 VH with E1Q, T91M
VL: B1 VL
B27: AC10 H3.39/L3 (antibody, IgG1, name in Kabat numbering, V domains shown)
VH: B1 VH with E1Q, N61D
VL: B1 VL
B28: AC10 H3.21/L3 (antibody, IgG1, name in Kabat numbering, V domains shown)
VH: B1 VH with E1Q, G44R
VL: B1 VL
B29: AC10 H3.49/L3 (antibody, IgG1, name in Kabat numbering, V domains shown)
VH: B1 VH with E1Q, A97T
VL: B1 VL
B30: AC10 H3.4/L3 (antibody, IgG1, name in Kabat numbering, V domains shown)
VH: B1 VH with E1Q, I2V
VL: B1 VL
B31: AC10 H3.11/L3 (antibody, IgG1, name in Kabat numbering, V domains shown)
VH: B1 VH with E1Q, Y33G
VL: B1 VL
B32: AC10 H3.3/L3 (antibody, IgG1, name in Kabat numbering, V domains shown)
VH: B1 VH with E1Q, I2M
VL: B1 VL
B33: AC10 H3.44/L3 (antibody, IgG1, name in Kabat numbering, V domains shown)
VH: B1 VH with E1Q, V72R
VL: B1 VL
B34: AC10 H3.6/L3 (antibody, IgG1, name in Kabat numbering, V domains shown)
VH: B1 VH with E1Q, A16T
VL: B1 VL
B35: AC10 H3.18/L3 (antibody, IgG1, name in Kabat numbering, V domains shown)
VH: B1 VH with E1Q, T35N
VL: B1 VL
B36: AC10 H3.9/L3 (antibody, IgG1, name in Kabat numbering, V domains shown)
VH: B1 VH with E1Q, D31S
VL: B1 VL
B37: AC10 H3.33/L3 (antibody, IgG1, name in Kabat numbering, V domains shown)
VH: B1 VH with E1Q, K59N
VL: B1 VL
B38: AC10 H3.16/L3 (antibody, IgG1, name in Kabat numbering, V domains shown)
VH: B1 VH with E1Q, T35G
VL: B1 VL
B39: AC10 H3.36/L3 (antibody, IgG1, name in Kabat numbering, V domains shown)
VH: B1 VH with E1Q, N61S
VL: B1 VL
B40: AC10 H3.2/L3 (antibody, IgG1, name in Kabat numbering, V domains shown)
VH: B1 VH with E1Q, I2L
VL: B1 VL
B41: AC10 H3.24/L3 (antibody, IgG1, name in Kabat numbering, V domains shown)
VH: B1 VH with E1Q, Y52N
VL: B1 VL
B42: AC10 H3.42/L3 (antibody, IgG1, name in Kabat numbering, V domains shown)
VH: B1 VH with E1Q, V72L
VL: B1 VL

molecular target: T1, human CD30 (commercial, conjugated to …); experiment: AlphaScreen competition

Binder | Fold IC50 vs H3/L3
B1 | 1 fold
B2 | 1.83 fold
B3 | 1.34 fold
B4 | 1.4 fold
B5 | 1.6 fold
B6 | 1.14 fold
B7 | 1.11 fold
B8 | 0.04 fold
B9 | 1.3 fold
B10 | 1.45 fold
B11 | 0.88 fold
B12 | 1.52 fold
B13 | 2.04 fold
B14 | 0.16 fold
B15 | 4.45 fold
B16 | 1.62 fold
B17 | 2 fold
B18 | 1.29 fold
B19 | 1.09 fold
B20 | 1.01 fold
B21 | 1.39 fold

Binder | Fold IC50 vs H3/L3
B22 | 1.81 fold
B23 | 0.01 fold
B24 | 1.38 fold
B25 | 0 fold
B26 | 1.14 fold
B27 | 1 fold
B28 | 2.6 fold
B29 | 0.38 fold
B30 | 1.28 fold
B31 | 0.73 fold
B32 | 0.68 fold
B33 | 1.76 fold
B34 | 1.13 fold
B35 | 0.13 fold
B36 | 1.65 fold
B37 | 0.5 fold
B38 | 0.15 fold
B39 | 1.24 fold
B40 | 2.76 fold
B41 | 0.03 fold
B42 | 0.66 fold
